Reference: the supplement of paper PMC10126150
± gives the standard deviation of the averaged measurements.

Test system: ATP
Test: switch fluorescence ratio, 500 uM ATP over buffer (Cy3 cluster intensity, sum of 5 cycles each) (fold (ratio)); higher = stronger signal-on switching upon ATP binding; sequences stand for … in TCGTCGGCAGCGTCAGATGTGTATAAGAGACAGTTTTTTTTTTTTTTTTTTTTTTTTT…TC
Conditions: aptamer strand: ATP DNA aptamer (quencher-CACCTGGGGGAGTATTGCGGAGGAAGG + anchor), 100 nM annealed; ATP concentration: 500 uM
Summary of the method: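 After annealing to 100 nM quencher-labelled ATP aptamer, Cy3-labelled switching-strand clusters on a modified Illumina MiSeq flow-cell were imaged in selection buffer. A second image followed after 15 min with 500 uM ATP at 22 °C, and five such buffer/ATP cycles were done, each separated by NaOH stripping and re-annealing. The fluorescence ratio, averaged per switch-domain sequence, is summed target-cycle over summed buffer-cycle Cy3 intensity per cluster, with clusters outside 100-1000 RFU excluded.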
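Note: ATP exposure 15 min at 22 °C before imaging.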

| Sequence | switch fluorescence ratio |
| --- | --- |
| GGGTCTTAAT | 0.981 ± 0.031 |
| TTTTGAAGTT | 1 ± 0.039 |
| TCATAGACGG | 0.987 ± 0.021 |
| AAAGGGCGGC | 0.992 ± 0.018 |
| ACCAGGGGAG | 1.26 ± 0.066 |
| TCGCACGTAT | 1.03 ± 0.043 |
| GGGCGGCGGG | 1.05 ± 0.053 |
| ATTACGGCAC | 2.09 ± 0.14 |
| GTGGCAGGCA | 0.984 ± 0.033 |
| TCAGTTTTTT | 0.999 ± 0.035 |
| GAGATCTGCT | 0.957 ± 0.015 |
| TAGTACCGGT | 0.991 ± 0.029 |
| AGGTGTGTCT | 1.019 ± 0.0093 |
| ATTCCCGGTT | 1.03 ± 0.022 |
| GGGTATCCTT | 1.01 ± 0.025 |
| ATGTTTGGAG | 0.982 ± 0.018 |
| CGATTCGAGT | 0.967 ± 0.016 |
| ACTATGGCCC | 1.03 ± 0.017 |
| AAAGTGAAGG | 0.996 ± 0.027 |
| CGATTTTTAG | 0.98 ± 0.032 |
| CATCGAGAGG | 1.01 ± 0.019 |
| TCTTGAGCAT | 1.34 ± 0.13 |
| GTGATCTAGG | 1.04 ± 0.033 |

| Sequence | switch fluorescence ratio |
| --- | --- |
| TAGCCAAGTC | 1.02 ± 0.01 |
| GGACGTCTGA | 1.02 ± 0.041 |
| CTGGGGGAAT | 1.01 ± 0.013 |
| CAGTATCCTT | 1.027 ± 0.003 |
| TAGCTGGAGG | 0.998 ± 0.035 |
| CTGGTATTCT | 0.996 ± 0.037 |
| CGGTCAAGGT | 1.003 ± 0.0076 |
| GATATTTTTA | 0.98 ± 0.034 |
| AGGGCCCCTG | 0.9941 ± 0.0044 |
| GACTCGATCC | 1.08 ± 0.023 |
| GTGGTGCCAA | 1.01 ± 0.026 |
| TTACATAATT | 1.02 ± 0.044 |
| GCAGTAGTGG | 1.2 ± 0.33 |
| AGGATCGACG | 0.925 ± 0.013 |
| ATGGGCGTAC | 1.03 ± 0.054 |
| ACGAGGGTCA | 1.01 ± 0.06 |
| GTTTTCCACA | 0.987 ± 0.067 |
| CGGGGTCAGT | 1.02 ± 0.014 |
| TATCGTCGGG | 1.008 ± 0.0064 |
| GCATTAAAAT | 0.9578 ± 0.0013 |
| AAATGGGTAG | 0.9692 ± 0.0062 |
| ATATAATGAT | 1.02 ± 0.02 |
| GTTTGCTGTT | 0.9931 ± 0.0089 |

| Sequence | switch fluorescence ratio |
| --- | --- |
| TAGTGTGTTT | 0.9823 ± 0.0095 |
| CCGGGGAGGT | 1.06 ± 0.1 |
| TACCAAGTCC | 1.05 ± 0.061 |
| ATATTGTCAT | 0.962 ± 0.015 |
| AGGTTCTCTG | 0.9942 ± 0.0011 |
| GGCAGGGCTG | 0.974 ± 0.051 |
| GTTGTGTCCG | 1.01 ± 0.067 |
| GGTTCAGATG | 1.0081 ± 0.00081 |
| TATGTTTGGC | 1 ± 0.04 |
| CAAGGGGTCG | 0.9946 ± 0.0066 |
| GAATTTTGTA | 0.984 ± 0.041 |
| ATTATAGTTG | 1.039 ± 0.0094 |
| TTGGTTTGCT | 1.005 ± 0.0045 |
| GTTTGGTTAT | 0.995 ± 0.012 |
| AGGCGCAGGT | 1.01 ± 0.021 |
| AATTCCGGGA | 1.05 ± 0.068 |
| GCACCTGGGC | 0.991 ± 0.039 |
| TTCGAATTAG | 2.28 ± 1.7 |
| CTTAAAAAGG | 0.989 ± 0.0056 |
| TTCGTTTGCA | 1.38 ± 0.64 |
| TCTTTTGGGG | 1.03 ± 0.024 |
| AATTAATTAA | 1.004 ± 0.01 |
| TAATTAACTT | 1.09 ± 0.12 |

| Sequence | switch fluorescence ratio |
| --- | --- |
| TGAGTTTGTT | 1.021 ± 0.0092 |
| CGTGGAGGTA | 0.985 ± 0.041 |
| GTTGTTCTGA | 0.9718 ± 0.0033 |
| GCGATTGGGT | 1.01 ± 0.043 |
| CCATATAGTT | 0.986 ± 0.03 |
| TTAATGCGCA | 1 ± 0.019 |
| GGTTATGAGG | 0.994 ± 0.031 |
| GTCATCAGTG | 1.02 ± 0.027 |
| AGTAGGTCGG | 0.987 ± 0.01 |
| CAAGATAGGG | 1.01 ± 0.026 |
| TAACGCTGCC | 1.25 ± 0.12 |
| GGATGGCGGT | 0.9846 ± 0.0069 |
| GAGTTATGG | 0.995 ± 0.043 |
| ACAATGTCTA | 0.962 ± 0.022 |
| AAGTCGACAC | 1.02 ± 0.032 |
| CCATATGGGG | 1.01 ± 0.019 |
| ATTGCATGAG | 1.004 ± 0.0014 |
| GGTGATGGGG | 0.985 ± 0.038 |
| CGCCATGGCC | 0.9924 ± 0.0066 |
| AATGGGCCCT | 0.979 ± 0.047 |
| CTTTTAATAG | 1.08 ± 0.057 |
| CATGGAATCG | 1.02 ± 0.035 |
| GAGAGTTGGG | 0.985 ± 0.022 |

| Sequence | switch fluorescence ratio |
| --- | --- |
| TCGTGAAGGG | 0.979 ± 0.051 |
| CTGAGTGATG | 1.01 ± 0.02 |
| TTGGGCACTT | 0.997 ± 0.068 |
| AGGTAGGGTA | 0.992 ± 0.031 |
| GGGTTGATCT | 0.993 ± 0.011 |
| AGGGGAAACA | 1.01 ± 0.031 |
| TATAAACGGG | 1 ± 0.024 |
| TTGATTGGAT | 1 ± 0.014 |
| CATGGGGGGA | 0.994 ± 0.018 |
| AGTTTAGTGA | 0.996 ± 0.044 |
| TTTATGTTGG | 0.979 ± 0.036 |
| AATTCATTTT | 1.03 ± 0.059 |
| ATATGGGAAG | 1 ± 0.048 |
| GTTTCTGGCC | 0.98 ± 0.019 |
| CCACTGGGCG | 1.07 ± 0.014 |
| TTGATATCAT | 0.97 ± 0.049 |
| CAAAGTTATA | 1.0129 ± 0.00033 |
| TGTTCCTTTT | 1.03 ± 0.023 |
| TTATGGAAGT | 0.989 ± 0.025 |
| TCTTGTATAG | 0.966 ± 0.032 |
| GATGAAAAAG | 1.033 ± 0.0093 |
| GGGGTTGTTA | 0.988 ± 0.021 |
| TTAACGGCGC | 1.04 ± 0.081 |

| Sequence | switch fluorescence ratio |
| --- | --- |
| GGGGGGCGCG | 1.01 ± 0.025 |
| GGCAAAGCGT | 1.03 ± 0.025 |
| CGGTAGGTGG | 1.01 ± 0.057 |
| GGGGACCAGT | 0.9845 ± 0.0031 |
| GCACGGTCGG | 1.009 ± 0.0021 |
| CGAGGGAGGC | 1.011 ± 0.0095 |
| TAGGTCGTTT | 0.982 ± 0.01 |
| AGCGTATGCA | 1.02 ± 0.024 |
| GAATCGATTT | 1.02 ± 0.027 |
| TAATATTTT | 0.966 ± 0.035 |
| ACCGGTAAAT | 1.01 ± 0.037 |
| GTTATTGGGG | 1.01 ± 0.024 |
| GTGACCGCCC | 1.49 ± 0.39 |
| CATGTGCTTC | 1.03 ± 0.0077 |
| GATTATTAGT | 1.012 ± 0.01 |
| GCCAGGGTGG | 1.01 ± 0.039 |
| CGGTGACGCG | 0.982 ± 0.028 |
| ATTTTAGCTG | 1.01 ± 0.046 |
| TTAAATCTCG | 0.989 ± 0.046 |
| AATGGTGGTT | 0.996 ± 0.03 |
| TCGCAAAGGT | 1.34 ± 0.036 |
| AATAGTGGTT | 1.004 ± 0.0033 |
| GTAGGGGGTT | 0.9951 ± 0.0041 |

| Sequence | switch fluorescence ratio |
| --- | --- |
| ACGGGGGCCT | 1.014 ± 0.0045 |
| GTTACTGCGG | 0.98 ± 0.021 |
| GGTCGGGTTC | 0.985 ± 0.015 |
| ATTTTAGTGC | 1.01 ± 0.053 |
| GATGCGGGGG | 1.02 ± 0.039 |
| TGGGGACGTG | 1.013 ± 0.0047 |
| ATTAAGAAGG | 1.002 ± 0.0095 |
| GGGATTTCCG | 0.992 ± 0.018 |
| TTTACACGAT | 1.01 ± 0.019 |
| GATTTGATTT | 0.991 ± 0.037 |
| GGAGGTCTAC | 1.03 ± 0.014 |
| TGAAGCCAGT | 1 ± 0.024 |
| CCAAGGGTGC | 1.63 ± 0.11 |
| GAAATTTTCC | 1.35 ± 0.077 |
| ATGGTAGTAT | 0.986 ± 0.016 |
| TTGGGGTTCA | 0.9752 ± 0.0084 |
| CAGTTATAAT | 1.04 ± 0.016 |
| GGTAACGTTT | 0.985 ± 0.027 |
| GATATGCTAT | 0.9915 ± 0.0066 |
